Experimental data from the DeepSol protein solubility set.

Assay: soluble on expression in E. coli; label from the status in PepcDB or PDB records

Soluble on expression in E. coli, soluble:
MSLSLPSSHFVLIAEEENNSYWRLVEKGAREAENQFDVLVEYKAPKRSNPEEQLKLIDMAISAKVDGIIVQAVNEEMFTPLINKAVDAGIPVITIDTDAPRSNRVAYIGTDNYYSGTIAGKAMLDDMEGDIHVAVITGSLESSHQKLRVQGFIDMISNEPRVTLVEVEASNISRLEAELKAHQLMEEHPHINAFYGTSALDGIGIVAAAEKLGLDDLYVIAFDTLPENLSLLEQEKIDAIVVQEPFEMGLKSVELLLDIREGQPYSMTNHTHTSIIRKPDLSLLQEHQRLGDEGHHHHHH, PIKMGWLKKQRSIVKNWQQRYFVLRAQQLYYYKDEEDTKPQGCMYLPGCTIKEIATNPEEAGKFVFEIIPASWDQNRMGQDSYVLMASSQAEMEEWVKFLRRVAG, MAKNDKINFSTPSGFPEFLPSEKRLELYLLDTIRRVYESYGFTPIETPAVERLEVLQAKGNQGDNIIYGLEPILPPNRQAEKDKSGDTGSEARALKFDQTVPLAAYIARHLNDLTFPFARYQMDVVFRGERAKDGRFRQFRQCDIDVVGREKLSLLYDAQMPAIITEIFEAVNIGDFVIRINNRKVLTGFFQSLNISETQIKSCISIIDNLEKIGEAKVKLELEKEGINPEQTQKIIDFVKIDGSVDDVLDKLKHLSQTLPESEQFNLGVSELETVITGVRNLGVPDKRFCIDLAIARGLNYYTGTVYETTLIGHEALGSICSGGRYEELVGTFIGEKMPGVGISIGLTRLISRLLKAGILNTLPPTPAQVVVVNMQDELMPTYLKVSQQLRQAGLNVITNFEKRQLGKQFQAADKQGIRFCVIIGADEAAAQKSSLKDLQSGEQVEVALADLAEEIKRRLT, MSLRTLVAGVDTSTQSCKVRVTDAETGELVRFGQAKHPNGTSVDPSYWWSAFQEAAEQAGGLDDVSALAVGGQQHGMVILDNQGNVIRDAMLWNDTSSAPQAAALIEKLGAAPAQDGEPEDPIARGKQRWVKAVGSSPVASYTLTKVAWVAENEPENVKKIAAICLPHDWLSWRIAGYGPVAEGEDAHLEALFTDRSDASGTIYYDAASNEYRRDLIAMVLEAAEGAKAAQSHAEAIVLPTVLGPRDAAPVKADPAIAGKNVEGGCLLAPGGGDNAMASLGLGMAVGDVSISLGTSGVAAAISENPTYDLTGAVSGFADCTGHYLPLACTINGSRILDAGRAALGVDYDELAKLAFASKPGANGITLVPYFDGERTPNRPNATATFSGMTLANTTRENLARAFVEGLLCSQRDCLELIRSLGASITRILLIGGGAKSEAIRTLAPSILGMDVTRPATDEYVAIGAARQAAWVLSGETEPPAWQLTIDGVETGEPTEAVYEAYAKARGEGHHHHHH, MHHHHHHLEVLFQGPSSTVTIEYFNQKKEMTKTLEEITRDFEKENPKIKVKVVNVPNAGEVLKTRVLAGDVPDVVNIYPQSIELQEWAKAGVFEDLSNKDYLKRVKNGYAEKYAVNEKVYNVPFTANAYGIYYNKDKFEELGLKVPETWDEFEQLVKDIVAKGQTPFGIAGADAWTLNGYNQLAFATATGGGKEANQYLRYSQPNAIKLSDPIMKDDIKVMDILRINGSKQKNWEGAGYTDVIGAFARGDVLMTPNGSWAITAINEQKPNFKIGTFMIPGKEKGQSLTVGAGDLAWSISATTKHPKEANAFVEYMTRPEVMQKYYDVDGSPTAIEGVKQAGEDSPLAGMTEYAFTDRHLVWLQQYWTSEADFHTLTMNYVLTGDKQGMVNDLNAFFNPMKM, TWVVSPAEKAKYDEIFLKTDKDMDGFVSGLEVREIFLKTGLPSTLLAHIWSLCDTKDCGKLSKDQFALAFHLISQKLIKGIDPPHVLTPEMIPPS, MGSSHHHHHHSSGLVPRGSHMAKVNAFSKKIGWIEFITGPMFAGKTAELIRRLHRLEYADVKYLVFKPKIDTRSIRNIQSRTGTSLPSVEVESAPEILNYIMSNSFNDETKVIGIDEVQFFDDRICEVANILAENGFVVIISGLDKNFKGEPFGPIAKLFTYADKITKLTAICNECGAEATHSLRKIDGKHADYNDDIVKIGCQEFYSAVCRHHHKVPNRPYLNSNSEEFIKFFKNKKRNKNI, MIKTLKEHTKIVRSVTFSPNGKYLAVGDICGTVEIWRVL, MSLFLKDDSIQIREVWNDNLQEEMDLIRDVVDDFPYVAMDTEFPGIVVRPVGTFKSNADYHYETLKTNVNILKMIQLGLTFSNEQGNLPTCGTDKYCIWQFNFREFDLDSDIFALDSIELLKQSGIDLAKNTLDGIDSKRFAELLMSSGIVLNENVHWVTFHSGYDFGYLLKLLTCQNLPDSQTDFFKLINVYFPTVYDIKHLMKFCNSLHGGLNKLAELLEVERVGICHQAGSDSLLTSCTFRKLKENFFVGPLHKYSGVLYGLGVENGQVAI, MSLKSLSYKRIYKSQEYLATLGTIEYRSLFGSYSLTVDDTVFAMVSDGELYLRACEQSAQYCVKYPPVWLTYKKCGRSVTLNYYRVDESLWRNQLKLVRLSKYSLDAALKEKSTRNTRERLKDLPNMSFHLEAILGEVGIKDVRALRILGAKMCWLRLRQQNSLVTEKILFMLEGAIIGIHEAALPVARRQELAEWADSLTPKQEFPAELEEGHHHHHH

Soluble on expression in E. coli, not soluble:
MGSDKIHHHHHHMIEHFNPWWKGREGIEEDEDYRKWIGSEVRWVPEVIKKISLEPFSLNIIFGPRQVGKTTLLKLIVKKLLDEGKNPRSIFYLRCDYISDYKELMNVIDEYLEIKETEGIKSSYILLDEVTFPKEWFRAIKLYIDMGKFRNDVLILTGSTSMYTKGEVETFPGRRGKGKDAVMLPLTFREFIKIASPKLHSVLPRINSLNKVEECLKAIPFIEELNSLFKLYLISGGFPRAVKDLLKHNKVSEETYETYISWMRGDILKLGKSEEVARRIMKTIIKKLPSPVSWHGIAKEIDIGSHKTVFSYIELFERMFLIRVLPYIDPDKLEADFKREKKVHLIDPFLYHLVSRWTLTEEPSEDKIVESVVATHVARRYEVGYWRDGREIDVVTREGVGIEVKWSDNVKVSPVKVGKIRKVITLSKSKFSRDPLVIPVSVFLSCI, MEDELEKYKRENADLKKEIERLKNSSASNTYKVIFEASPDILIQLNADYKIIVIHIPNIEEERVNTVVGKDIFDVTPEYTHVKMKNALTSVFRDGEVVKYFSEGETMGSYRYYDNYLSPIKDAEGNITTVYFRSRDIT, MGSDKIHHHHHHARRNILRQTWMSKANSEIVANGRMKPLFLVGLTPGEYKMKKMVMQEAKLYGDIIVVDMNDNYEELTYKSLAILLYGVSKAPRYQMIGKIDEDVMFFPDKLTELYDQGFIDATPLRIYGLKMQSGANIFRDKTHRWYVPESSYSCSKFPEYVSGMLYMVTWEAAQQIIKSTKYRDFIQVEDVFLTGILAEDLGISVKNLP, MEGLNVLVTGSTCGLGLHTAKILFKKGANVILTCRDEIRGRHAVESLLSGVSQEQSQKEAERIHLFTLDVTNYNSICNFTDEISRMFKYLHVIINNAGIMGMPFELSVDGIEMHFATNVFGHYVVVERLLPLLLKTDRPDFKSRVIVVSSGLYRNAEAIPQVSKLLGQKTYDYSPKQAYAFSKLANCLYTGALSKMLEPHNVGVYCVRPGFVNGTELGRETHWILRALAAPIIWFIAKTLEQGCETIVYLAETSGNQLKNGSMYYERKEEAYNEMVEVTSIRQVWAILRHLEDTVWKRNTQMTDEQRNHGEMVRELLNESLIV, MSDYLSVSSLTKYLKLKFDRDPYLERVYLTGQVSNFRRRPNHQYFSLKDEKAVIQATMWSGIYRKLGFELEEGMKINVIGRVQLYEPSGSYSIIIEKAEPDGIGALAVQFEQLKKKLAEAGYFDDRHKQRLSQFVKKIGVVTSPSGAVIRDIITTVSRRFPGVDILLFPTKVQGEGAAQEVADNIRLANERTDLDLLIVGRGGGSIEDLWAFNEEIVVQAIFESHLPIISSVGHETDTTLADFAADRRAATPTAAAELATPVTKADLLAFLKERQMRSYQAVMRLIRQKDEQVKKLQRSVIFRQPERLYDAYVQKLDHLRTHLLTKVRQVYDVYDSKEHLLRQRLLSFNLSGCIQRYQAQLKQDQRLLLSHMSSQYDSKLARFEKAQDALLSLDTTRIVARGYAIVQKDNHIIQSTQQIKKGDRLHLEMKDGQVQVEVENVKQEENI, MKTPSLILMTIILCNLSIPINAQILTSRQQKEDFDTLYSLLHQVHPDLFVYQTQKEFEKKHDSIYCLLNKERNLSDFYFIVSPFVASVKDGHTNFTIPATQDRIDYLNNGGLTLPLRLKIVENKILVDFPLISCSIQENDEIICMNNINSQTILSQLYLLLGAEKGNAIKENQLTSYLSTLLWYKYNWGEKYDFTIKRGKKIWKESLNGISQADAFPVLKARLGKSLPQFVYTLSPDKQTATLQIMNLYQLPQLKQFCDSVFSVINREHVPNLVIDVRNNKGGSSAGVDMLLSYLSHDAYILYIKTDLKISSYSKRYNEQKHPETYEEIKNLPDGSLFAIRDSFVEGNRDKADIYKGSVTVLVNESTYSGASTFASAIKKSHAGKVLGETGCPTVYFGNYMSFTLPNSRLEYYISLNKFYE, MGHHHHHHSHMKRMAENELSRSVNEFLSKLQDDLKEAMNTMMCSRCQGKHRRFEMDREPKSARYCAECNRLHPAEEGDFWAESSMLGLKITYFALMDGKVYDITEWAGCQRVGISPDTHRVPYHISFGSRIPGTRGRQRATPDAPPADLQDFLSRIFQVPPGQMPMGTSLQLLSLPLEPLQPLSPTAQYPREKPNLSGGRK, MTQEAIFKAIREREMKVLNIQVTSSCNYACGMCPFHGDGYSGEYFDERPTIRRDMSLDEIKLILEKASMEGFEWIDLTPNGEFFTHKQWYQILSLIKEFGLKIMITSNGGLLGEEDIKRACEVGVDHIVISVDSLSYESYKKIRKPATKLAFERAIHAPLYFKKYGGDSIYVQIQITEQPEFPHEALGVLDFYKDKGLNQISLKKMFVTGEDGIGHIGVEKLEYTHGKCKAYGSPIVMTDGTVLPCCGAFYFYPKLGEKIPNIFNHTIFESARILDDLYERDSLFGSYCRNCSLYDSSRKAAPVKFIFGDYYAEQTLFETRYFILPKYLRFLPSLAILWLYKKGYARKIKQWLVAAQ, MGSDKIHHHHHHMNSKLSLSTKLSSSGKTQLAEYFATPPFKVITLPSYDDAWANGLNAMQMSSSPGVLAGDLLEIDISLAKLTALSLNTQAFTRVQAMNEGDSAMQTTHILLAENSRLFYLPHPLVLHRDSVFKQQTQIEMGEQSELIYGEIVAIGRVLNDERFAFRQFSSHLKIYALQNDGKKRPLVSDCIQWLPSKMNLTALSQMENYSHQGSLTYLNLAKNNAEIKQQVQALQQQSTEEKDLLIGISQLNEYGLMVRVLGCRAEANSEII, MASQPTNAVSAEQLMLSKMQAMQAQVQPPEFIVSANPLDQQALNAPLSFSQAMTNVLDTVNQHQSAASQKMTAVETGQSDDLVGAMVASQKASLSFNALMQVRNKVVASFEDIMKMPV, MGSDKIHHHHHHMSKSVDETVFDFFELLLHEDDSAFSASPIKSQASATSAFDVSIKTEAQQLNDAILAEHERSKVDARASIVPEAQLARAKSIVTVSTKENAEPLVNKQALERLLAPVLKTQAPDIPKPTELNEQPLPLPKPVEAIAVTNVVKPADVESQQVEIISTAPETQVGFAPPSVTKDLQEVLDDEFQVLFFKVAGLTLAVPLVSLGGIVKVERINHIIGRPSWFLGVQTHREEQLNLVDTCAWVMPEKYTDKLAQSVNYQYLVLLEGSNWGLACESLLNAVKIHKSQVNWRSKAGKRPWLAGVVKEQMCGILHVQALVQMLDAGLGCQDSIG, MRAQMKQYNCHEGALPFTKSYLLRPLFNAFLMSPKPFHTTEACIGCKKCEKVCPVGNITVTDRPVWGGNCTQCLACYHVCPVHAVEYGKMTGLEHHHHHH
